In the supplement of paper PMC10567573:

B1: TBX5 (parent)
chain: FHEVGTEMIITKAGRRMFPSYKVK

Variants of: B1
Test: protein stability index of a GFP-peptide fusion (GPS, HEK-293T) (PSI 1-6); higher = more stable
Conditions: c terminus: a fixed tail appended
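Further: lentivirally expressed fusions sorted by FACS into six bins by GFP to DsRed ratio, PSI derived from sequencing read proportions per bin multiplied by bin number.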

Variant	protein stability index
FHEVGTEMIITKAGRRMFPSTKVK	2.42
FHEVGTEMIITKAGRRMFPSHKVK	3.03
FHEVGTEMIITKAGRRMFPSLKVK	2.15
FHEVGTEMIITKAGRRMFPSMKVK	1.95
FHEVGTEMIITKAGRRMFPSEKVK	2.92
FHEVGTEMIITKAGRRMFPSAKVK	2.66
FHEVGTEMIITKAGRRMFPSVKVK	1.86
FHEVGTEMIITKAGRRMFPSCKVK	2.21
FHEVGTEMIITKAGRRMFPSWKVK	1.87
FHEVGTEMIITKAGRRMFPSGKVK	2.51
FHEVGTEMIITKAGRRMFPSPKVK	2.13
FHEVGTEMIITKAGRRMFPSNKVK	2.55
FHEVGTEMIITKAGRRMFPSRKVK	3.16
FHEVGTEMIITKAGRRMFPSFKVK	2.83
FHEVGTEMIITKAGRRMFPSSKVK	2.61
FHEVGTEMIITKAGRRMFPSIKVK	1.48
FHEVGTEMIITKAGRRMFPSQKVK	2.7
FHEVGTEMIITKAGRRMFPSKKVK	2.21
FHEVGTEMIITKAGRRMFPSDKVK	2.64
FHEVGTEMIITKAGRRMEPSYKVK	2.34
FHEVGTEMIITKAGRRMTPSYKVK	1.92
FHEVGTEMIITKAGRRMCPSYKVK	2.61
FHEVGTEMIITKAGRRMLPSYKVK	2.51
FHEVGTEMIITKAGRRMRPSYKVK	1.76

Variant	protein stability index
FHEVGTEMIITKAGRRMYPSYKVK	2.07
FHEVGTEMIITKAGRRMSPSYKVK	2.41
FHEVGTEMIITKAGRRMPPSYKVK	2.11
FHEVGTEMIITKAGRRMIPSYKVK	2.07
FHEVGTEMIITKAGRRMMPSYKVK	2.23
FHEVGTEMIITKAGRRMQPSYKVK	2.58
FHEVGTEMIITKAGRRMVPSYKVK	2.01
FHEVGTEMIITKAGRRMWPSYKVK	1.8
FHEVGTEMIITKAGRRMAPSYKVK	2.76
FHEVGTEMIITKAGRRMKPSYKVK	1.94
FHEVGTEMIITKAGRRMGPSYKVK	2.25
FHEVGTEMIITKAGRRMNPSYKVK	2.07
FHEVGTEMIITKAGRRMHPSYKVK	3.08
FHEVGTEMIITKAPRRMFPSYKVK	2.86
FHEVGTEMIITKAFRRMFPSYKVK	2.41
FHEVGTEMIITKAKRRMFPSYKVK	1.68
FHEVGTEMIITKAMRRMFPSYKVK	1.49
FHEVGTEMIITKAERRMFPSYKVK	2
FHEVGTEMIITKARRRMFPSYKVK	1.64
FHEVGTEMIITKAVRRMFPSYKVK	1.62
FHEVGTEMIITKAQRRMFPSYKVK	2.17
FHEVGTEMIITKAHRRMFPSYKVK	1.73
FHEVGTEMIITKAWRRMFPSYKVK	1.95
FHEVGTEMIITKAARRMFPSYKVK	2.6

Variant	protein stability index
FHEVGTEMIITKATRRMFPSYKVK	2.42
FHEVGTEMIITKAYRRMFPSYKVK	2.17
FHEVGTEMIITKADRRMFPSYKVK	1.48
FHEVGTEMIITKALRRMFPSYKVK	1.71
FHEVGTEMIITKAIRRMFPSYKVK	1.66
FHEVGTEMIITKASRRMFPSYKVK	1.83
FHEVGTEMIITKANRRMFPSYKVK	2.04
FHEVGTEMIITKAGRRMFPYYKVK	2.84
FHEVGTEMIITKAGRRMFPWYKVK	2.42
FHEVGTEMIITKAGRRMFPRYKVK	2.61
FHEVGTEMIITKAGRRMFPTYKVK	2.69
FHEVGTEMIITKAGRRMFPAYKVK	1.89
FHEVGTEMIITKAGRRMFPLYKVK	1.86
FHEVGTEMIITKAGRRMFPVYKVK	1.97
FHEVGTEMIITKAGRRMFPCYKVK	3.1
FHEVGTEMIITKAGRRMFPHYKVK	2.31
FHEVGTEMIITKAGRRMFPQYKVK	2.83
FHEVGTEMIITKAGRRMFPIYKVK	2.54
FHEVGTEMIITKAGRRMFPEYKVK	2.02
FHEVGTEMIITKAGRRMFPKYKVK	2.18
FHEVGTEMIITKAGRRMFPGYKVK	1.93
FHEVGTEMIITKAGRRMFPPYKVK	2.42
FHEVGTEMIITKAGRRMFPDYKVK	2.18
FHEVGTEMIITKAGRRMFPNYKVK	2.06

Variant	protein stability index
FHEVGTEMIITKAGRRMFPMYKVK	2.67
FHEVGTEMIITKAGRAMFPSYKVK	1.91
FHEVGTEMIITKAGRHMFPSYKVK	2.02
FHEVGTEMIITKAGRNMFPSYKVK	2.54
FHEVGTEMIITKAGRYMFPSYKVK	1.92
FHEVGTEMIITKAGRKMFPSYKVK	2.65
FHEVGTEMIITKAGRIMFPSYKVK	1.81
FHEVGTEMIITKAGRSMFPSYKVK	1.75
FHEVGTEMIITKAGRVMFPSYKVK	1.54
FHEVGTEMIITKAGRQMFPSYKVK	1.85
FHEVGTEMIITKAGRCMFPSYKVK	1.59
FHEVGTEMIITKAGRTMFPSYKVK	2.03
FHEVGTEMIITKAGRMMFPSYKVK	1.96
FHEVGTEMIITKAGRLMFPSYKVK	2.09
FHEVGTEMIITKAGREMFPSYKVK	2.38
FHEVGTEMIITKAGRDMFPSYKVK	2.15
FHEVGTEMIITKAGRPMFPSYKVK	2.11
FHEVGTEMIITKAGRGMFPSYKVK	2.43
FHEVGTEMIITKAGRFMFPSYKVK	2.31
FHEVGTEMIITKAGRRMFPSYKEK	2.5
FHEVGTEMIITKAGRRMFPSYKRK	2.71
FHEVGTEMIITKAGRRMFPSYKAK	2.35
